Measurements reported in paper PMC2719695, “Structures of native human thymidine phosphorylase and in complex with 5-iodouracil” (Biochemical and Biophysical Research Communications, 2009).

Target: the molecule itself
Assay: crystal structure; native hTP without ligand, space group P2(1), 0.1 M Na-acetate pH 5.2, 25% PEG 4000, 0.1 M ammonium acetate; 3.0 Å; four chains in the asymmetric unit

B1: Human thymidine phosphorylase (enzyme)
chain: APPAPGDFSGEGSQGLPDPSPEPKQLPELIRMKRDGGRLSEADIRGFVAAVVNGSAQGAQIGAMLMAIRLRGMDLEETSVLTQALAQSGQQLEWPEAWRQQLVDKHSTGGVGDKVSLVLAPALAACGCKVPMISGRGLGHTGGTLDKLESIPGFNVIQSPEQMQVLLDQAGCCIVGQSEQLVPADGILYAARDVTATVDSLPLITASILSKKLVEGLSALVVDVKFGGAAVFPNQEQARELAKTLVGVGASLGLRVAAALTAMDKPLGRCVGHALEVEEALLCMDGAGPPDLRDLVTTLGGALLWLSGHAGTQAQGAARVAAALDDGSALGRFERMLAAQGVDPGLARALCSGSPAERRQLLPRAREQEELLAPADGTVELVRALPLALVLHELGAGRSRAGEPLRLGVGAELLVDVGQRLRRGTPWLRVHRDGPALSGPQSRALQEALVLSDRAPFAAPSPFAELVLPPQQ
notes: Human thymidine phosphorylase (hTP, EC 2.4.2.4), cDNA clone from the Mammalian Gene Collection; residues 32-480 are seen in the crystals; Homodimer; the His tag is surmised from the Ni2+ column; Native crystal: residues 34-479 in all four copies (32, 33 and 480 in some chains); complex with 5-iodouracil: residues 35-480 in both chains; also called hTP; TP; source: E. coli …
- stoichiometry N: 2
